# Data reported in patent US9023998B2, “Near infrared fluorogen and fluorescent activating proteins for in vivo imaging and live-cell biosensing” (Carnegie Mellon University, priority 2013, dated 2015).
# Assays:
# dL9 (SEQ. ID NO: 1) = assay: Fluorescence activation of SKC638 by purified dL9; assay type: biochemical; details: molar excess of purified dL9, excitation 630 nm, non-normalized spectrum
# From the text: The non-normalized emission spectrum shown (black, solid) was acquired using a Quantamaster fluorometer (PTI) by excitation through monochromators set at 630 nm. The primary peak near 730 nm is likely due to contaminating SKC602, while a second, smaller peak is clearly observed near 823 nm, and is likely contributed by the extended chromophore of SKC638.
# [1] = Spectral properties of fluoromodules (Table 1); assay type: physicochemical; details: fluoromodule (FAP:fluorogen complex)
# From the text: The spectral properties of fluoromodules assembled from combinations of dL9.2 (SEQ. ID. NO. 2) and dL9.5 (SEQ. ID. NO. 3) with SKC602 and SKC728 are listed in Table 1. dL9.2 (SEQ. ID. NO. 2) is an asymmetric light chain (VL-VL) tandem dimer based upon dL9 (SEQ. ID. NO. 1), hosting the V70A mutation on the N-terminal light chain. dL9.5 (SEQ. ID. NO. 3) is a symmetric light chain (VL-VL) tandem dimer based upon dL9.2 (SEQ. ID. NO. 2) with the V70A mutation propagated to C-terminal chain, and an additional Y96H mutation that is present on both chains. These genetically encoded fluorescent labels yield good brightness in the far-red/NIR spectral regime when combined with their cognate fluorogens.
# The dL9.2:SKC602 (SEQ. ID. NO. 2:SKC602) fluoromodule (black, solid) emits at longer wavelengths than existing biliverdin-binding infra-red fluorescent proteins, while retaining the ability to be excited effectively by common illumination sources such as the HeNe laser line (633 nm) as well as lamps equipped with Cy5™-compatible excitation filters. Spectra of dL9.5 (SEQ. ID. NO. 3) bound to SKC602 are highly similar. Excitation and emission spectra are normalized to the highest value within each data set.
# (§1) Relative fluorescence quantum yield assessments were conducted via the gradient method (Williams, Winfield and Miller, Relative Fluorescent Quantum Yield Using a Computer-controlled Luminescence Spectrometer, Analyst, vol. 108, 1067-1071 ([…]) against reference dyes Cy5.18 in PBS, pH 7.4 (Mujumdar, et al., Cyanine Dyes Labeling Reagents: Sulfoindocyanine Succinimidyl Esters, Bioconjugate Chemistry, Vol. 4, No. 2, 105-111 (1993) and oxazine-1 in absolute ethanol (Worth, et al., Integrating Sphere Setup for the Traceable Measurement of Absolute Photoluminescence Quantum Yields in the Near Infrared, Analytical Chemistry, 84, 1345-1352 (2012). Fluoromodules were formed by combining a quantity of fluorogen (SKC602 or SKC728) at least 20-fold above the fluoromodule dissociation constant with a molar excess of purified FAP (dL9.2 (SEQ. ID. NO. 2) or dL9.5 (SEQ. ID. NO. 3)). The solutions were incubated at 4° C. with rocking for at least one hour prior to measurements in order to ensure complete complex formation. The optical path length for all sample measurements was 1.00 cm, and all solutions were at room temperature during measurement. Absorbance measurements were taken using a PerkinElmer Lambda 45 UV/VIS spectrometer, while fluorescence emission spectra were measured using a Quantamaster fluorometer equipped with dual excitation and emission monochromators (Photon Technology International). Fluorescence emission was integrated using Spekwin32 (Menges 2013, http://www.effemm2.de/spekwin/spekwin_copyright/de.html. Linear fits and quantum yield ratios were calculated in Microsoft Excel 2013.
# [2] = Relative fluorescence quantum yield of fluoromodules, gradient method; assay type: physicochemical; details: relative to Cy5.18 in PBS pH 7.4 and oxazine-1 in ethanol; molar excess of FAP; room temperature
# Experimental: as §1
# [3] = Fluoromodule activity/stability with respect to pH; assay type: physicochemical; details: for Longer-term stability of fluorescence across pH: 24 hours
# Experimental: […] 4. The averages of five replicates per pH increment are shown as filled circles; bars denote extreme values within each replicate set, and normalization is to the maximum value within all data points. […] Stability of this degree allows the fluoromodule probe to be useful in an extremely wide range of cellular contexts.
# A set of titrating buffers occupying pH values from 2.0 to 10.0 in 0.5 unit increments was prepared at room temperature in accordance to a published recipe (Carmody, An Easily Prepared Wide Range Buffer Series, Journal of Chemical Education, Vol. 38, No. 11, pp. 559-560 (1961)) adjusted to accommodate sodium chloride at a concentration of 300 mM. Fluoromodules consisting of dL9.5 bound to SKC602 were prepared by addition of 16.7 μL HPLC-purified SKC602 (300 μM stock in EtOH/5% acetic acid) to 1.30 mL Buffer (10.0 mM Tris, pH 8.0 at RT, supplemented with 300 mM NaCl). Purified dL9.5 was added (1.5 mL, approximately 50 μM stock) and incubated at 4° C. for 90 minutes. […] Fluorescence was then measured using a TECAN Infinite M1000 plate reader with 695/10 nm excitation and 735/10 nm emission windows at a gain of 111. Data was processed in Microsoft Excel 2010: The mean fluorescence intensity value for each pH increment was calculated, and all mean values were divided by the maximum mean intensity in order to normalize fluorescence intensities measured across the entire pH range to a value of 1.0. Extreme values within each set of five replicates calculated to a percentage of the mean for each pH increment in order to indicate the degree of variation across replicate reads.
# [4] = test system: HEK293 cells expressing dL9.5; assay: Confocal imaging of HEK293 cells expressing dL9.5 in various cellular contexts; assay type: cell-based; details: cytoplasmic dL9.5-eGFP, 200 nM SKC602, fluorogen not washed away
# From the text: The expressed construct was imaged using an Andor Revolution XD spinning disk confocal (GFP 488:525/50, dL9.5 (SEQ. ID. NO. 3) 640:685/70 AND 640:794/160, 60×1.49 NA oil immersion objective) and the results are shown in FIG. 5. […] The fluorogen was not washed away prior to imaging.
# Imaging conditions were similar to those described for obtaining FIG. 5.
# CYTOPLASM. HEK293 cells were transfected with, and stably expressing the pCYdL9.5eGFP vector, were thawed from a cryostock and maintained in DMEM/10% FBS for four passages prior to fluorescence imaging procedures. Immediately prior to imaging, growth media was exchanged for HBSS (pH 7.4) supplemented with SKC602 (200 nM final concentration). The cells were allowed to recover at 37° C. with 5% CO2 for 20-30 minutes, and fluoromodule activity under in vivo conditions within the cytoplasm was imaged using an Andor Revolution XD spinning disk confocal microscope (60×1.49 NA oil immersion objective, excitation at 640 nm, emission in far-red: 685/70 filter, and NIR: 794/160 filter). The same cells were also imaged for eGFP activity (excitation at 488 nm, emission via 525/50 nm filter). […] In accordance with the fluoromodule emission spectrum shown in FIG. 2, this emission filter allows the microscope camera to detect a large portion of the fluoromodule emission, and consequently, the observed signal appears brighter. One must note that intensities cannot be directly compared between channels, due to considerations non-exclusively including: differences in excitation light intensities, exposure and capture times, the transmission profile of each emission filter, and the quantum efficiency of the iXON3 DU897 (back-illuminated) camera across the range of emitted wavelengths. An evenly distributed fluorescence signal is observed in these cells, with no bright foci that would indicate protein aggregation, and the fluoromodule signal intensity scales with that of eGFP.
# PLASMA MEMBRANE. […]
Molecule,Emission peak contributed by extended chromophore (dL9 (SEQ. ID NO: 1)) [nm],Brightness (ε · Φ · 1 × 10^−3) [1],"Em (nm), emission maximum [1] [nm]","Ex (nm), excitation maximum [1] [nm]",ε [1] [M⁻¹ cm⁻¹],Φ (fluorescence quantum yield) [2],"Fluorescence stability across pH range ([3]; Carmody buffer with 300 mM NaCl, pH 2-10, after three hours)","Change of mean fluorescence in each pH solution over one hour ([3]; pH 2.0-10.0, reads every minute for one hour) [%]",NIR fluorescence in cytoplasm of HEK293 cells [4],Longer-term stability of fluorescence across pH [3]
CN(C)c1ccc(/C=C/C=C/C(=C2C=CC(=[N+](C)C)C=C2)c2ccc(N(C)C)cc2)cc1 [SKC638],~823,,,,,,,,,
"dL9.5:SKC602: fluoromodule: FAP dL9.5 (SEQ. ID. NO. 3) non-covalently complexed with fluorogen SKC602 (protein, non-covalent fluorogen SKC602; Fluorogen Activating Peptide (FAP) sequence) SYELTQPPSVSVSPGQTARITCSGDALPKQYTYWYQQKAGQAPVLVIYKDTERPSGIPERFSGTSSGTTATLTISGVQAEDEADYYCQSADSSGSHVFFGGGTKVTVLSGGGGPGGGSGGGSGGGSGGGSYELTQPPSVSVSPGQTARITCSGDALPKQYTYWYQQKAGQAPVLVIYKDTERPSGIPERFSGTSSGTTATLTISGVQAEDEADYYCQSADSSGSHVFFGGGTKVTVLS",,20,731,702,120000,0.17,exceptional stability across a broad pH range,≤ 3,produces NIR fluorescence,
"dL9.2:SKC728: fluoromodule: FAP dL9.2 (SEQ. ID. NO. 2) non-covalently complexed with fluorogen SKC728 (protein, non-covalent fluorogen SKC728; Fluorogen Activating Peptide (FAP) sequence) SYELTQPPSVSVSPGQTARITCSGDALPKQYTYWYQQKAGQAPVLVIYKDTERPSGIPERFSGTSSGTTATLTISGVQAEDEADYYCQSADSSGSYVFFGGGTKVTVLSGGGGPGGGSGGGSGGGSGGGSYELTQPPSVSVSPGQTARITCSGDALPKQYTYWYQQKAGQAPVLVIYKDTERPSGIPERFSGTSSGTTVTLTISGVQAEDEADYYCQSADSSGSYVFFGGGTKVTVLS",,19,733,703,90000,0.21,,,,remained stable over 24 hours
"dL9.5:SKC728: fluoromodule: FAP dL9.5 (SEQ. ID. NO. 3) non-covalently complexed with fluorogen SKC728 (protein, non-covalent fluorogen SKC728; Fluorogen Activating Peptide (FAP) sequence) SYELTQPPSVSVSPGQTARITCSGDALPKQYTYWYQQKAGQAPVLVIYKDTERPSGIPERFSGTSSGTTATLTISGVQAEDEADYYCQSADSSGSHVFFGGGTKVTVLSGGGGPGGGSGGGSGGGSGGGSYELTQPPSVSVSPGQTARITCSGDALPKQYTYWYQQKAGQAPVLVIYKDTERPSGIPERFSGTSSGTTATLTISGVQAEDEADYYCQSADSSGSHVFFGGGTKVTVLS",,23,733,703,98000,0.23,,,,
"dL9.2:SKC602: fluoromodule: FAP dL9.2 (SEQ. ID. NO. 2) non-covalently complexed with fluorogen SKC602 (protein, non-covalent fluorogen SKC602; Fluorogen Activating Peptide (FAP) sequence) SYELTQPPSVSVSPGQTARITCSGDALPKQYTYWYQQKAGQAPVLVIYKDTERPSGIPERFSGTSSGTTATLTISGVQAEDEADYYCQSADSSGSYVFFGGGTKVTVLSGGGGPGGGSGGGSGGGSGGGSYELTQPPSVSVSPGQTARITCSGDALPKQYTYWYQQKAGQAPVLVIYKDTERPSGIPERFSGTSSGTTVTLTISGVQAEDEADYYCQSADSSGSYVFFGGGTKVTVLS",,20,731,702,120000,0.17,,,,remained stable over 24 hours
